Laboratory results as given in article doi:10.1101/2025.03.12.642377 (bioRxiv, 2025).

Target: PACRG-mNeonGreen-6xHis (C. reinhardtii, UniProt B1B601 1-307)
Test: pull-down

B1: FAP20-mRuby3 (His-tag cleaved) (natural protein, C. reinhardtii, UniProt A8IU92 1-190, looked up)
chain: MFKNAFQSGFLSVLYSIGSKPLEIWDKQVSNGHIKRITDADIQSSVLEIMGQNVSTTYITCPADPNKTLGIKLPFLVLIIKNLNKYFSFEVQVLDDKNVRRRFRASNYQSTTRVKPFICTMPMRLDSGWNQIQFNLSDFTRRAYGTNYIETLRVQVHANCRIRRIYFSDRLYSEEELPAEFKLFLPIQKS
B1: binds.
